This is an account of results in the DeepSol protein solubility set.

This data set is described as follows: soluble on expression in E. coli; label from the status in PepcDB or PDB records.
For the sequence “MKALTARQQEVFDLIRDHISQTGMPPTRAEIAQRLGFRSPNAAEEHLKALARKGVIEIVSGASRGIRLLQEEEEGLPLVGRVAADEPLLAQQHIEGHYQVDPSLFKPNADFLLRVSGMSMKDIGIMDGDLLAVHKTQDVRNGQVVVARIDDEVTVKRLKKQGNKVELLPENSEFKPIVVDLRQQSFTIEGLAVGVIRNGDWL”, the “soluble on expression in E. coli” value was “soluble”.

As for “MGSDKIHHHHHHMTFDEYEVAINSEFTLQGTLTKPKAGGKYAAVIIIAGSGEIDRDGTILPLKLESNIYKDLAHVMAKLGVVTLRFDKRGVGKSDGEFLKTGMWDLVNDIESTITYLKEQPFVDPENIILAGHSEGCMLATVVNARTPVNGLILLTGAAESLEEATKRQREIAYKELKEQKGIKGKLMRLLDVEKRGEKQMEKIKEKMMNTEKDTIKVGFKPMNAKWFREHFQHDIYKDLQQVTCPVLAIAGDKDFQANPEKAKRIGDYVQGDSEVHVIKDMDHSLKSFEGDFKALEFKKNYEEGAGKPLHPMLEEIIMNWISTNFILHKIPVSTLSEYEGDGKESNCL”, the “soluble on expression in E. coli” value is “not soluble”.

Consider “MGSDKIHHHHHHMAAIAGLYVYPIKGLDSEHRSTATLRTHGQLHHDRTFTLVDSDTGSIVTAKRRPALHAFRTDYEPETGTLTVTDPDGQRASFSLGDDEGLSAAGDWFDSRLAVSVSMRSDPTGFVDRSDMGPAVVSTATLEAIADWFDSMTVAGARRRLRANIEIEGVPAFWEDRFVGDGAPAFEVGGVRFEGVTPCNRCVVPSRDPDTGEQLPEFRKTFCANRERTFPEWADGDAFDHEYAAMILARAPDISGGETLAVGDGVAVLDEAA”, for which the “soluble on expression in E. coli” value was “not soluble”.

Turning to “KERERLEEKLEDANERIAELVKLEERQRIARDLHDTLGQKLSLIGLKSDLARKLIYKDPEQAARELKSVQQTARTSLNEVRKIVSSMKGIRLKDELINIKQILEAADIMFIYEEEKWPENISLLNENILSMCLKEAVTNVVKHSQAKTCRVDIQQLWKEVVITVSDDGTFKGEENSFSKGHGLLGMRERLEFANGSLHIDTENGTKLTMAIPNNSK”, the “soluble on expression in E. coli” value is “not soluble”.

Consider “MPNQGSSNKVYVIGVGMTKFEKPGRREGWDYPDMARESGTKALRDAGIDYREVEQGYVGYVYGESTSGQRALYELGMTGIPIVNVNNNCSTGSTALYLGAQAIRGGLADCVLALGFEKMQPGALGGGADDRESPLGRHVKALAEIDEFGFPVAPWMFGAAGREHMKKYGTTAEHFAKIGYKNHKHSVNNPYAQFQDEYTLDDILASKMISDPLTKLQCSPTSDGSAAVVLASEDYLANHNLAGRAVEIVGQAMTTDFASTFDGSARNIIGYDMTVQAAQRVYQQSGLGPKDFGVIELHDCFSANELLLYEALGLCGPGEAPELIDDNQTTYGGRWVVNPSGGLISKGHPLGATGLAQCAELTWQLRGTAEARQVDNVTAALQHNIGLGGAAVVTAYQRAER”, for which the “soluble on expression in E. coli” value is “not soluble”.

As for “MNKYFYDGTPEGLVSAIGAILESGDDPEQTVLSIRQDTLFEEGLFLRTDSAVAEALFQRLRERAPDAVQTLWYFTMTEVDGLATSLLRYIALAFEHGDQVNGYLTHPDVKAVVATARKVGRELHRMKGLLRFEQLRDGTWLARMEPDHNVIQPLARHFSRRLRTQEWFIYDARRHSAAHWDGHALSFGTLERFSRPELSPEERVMQQLWQTFFKTIAIPERKNPRLQQSNMPAKYWKYLTEKQGE”, the “soluble on expression in E. coli” value was “not soluble”.

In the case of “MEEPFEAYRSREVAMKLVEKIREEAKTLDGEIRIMHVCGTHEDTVTRHGIRSLLPENVKVVSGPGCPVCITPVEDIVAMQLIMRKAREEGEEIILTTFGDMYKIPTPMGSFADLKSEGFDVRIVYGIFDTYRIAKENPDKTVVHFSPGFETTTAPAAGMLNVAAQEELENFKIYSVHRLTPPAVEVLLKQGTVFQGLIAPGHVSTIIGVKGWEYLTEKYGIPQVVAGFEPNDVLMAILMLIRMYKEGEARIINEYERAVKYEGNVVAQKMIDKFFEVVDAKWRALGVFPKSGLELRKEWKDFEIRSFYKVEVPKNLPDLEKGCRCGAVLRGLALPTDCPLFGKTCTPRHPVGPCMVSYEGTCQIFYKYGVLF”, the “soluble on expression in E. coli” value is recorded as “soluble”.

Regarding “MGSDKIHHHHHHMSDTLIELRNIGKRFGGVRALDGVSLAIRPGEIHCLAGENGSGKSTVIKVMSGIYTPEEGEILIDGRPVGRLDPIRAVQHGVQVIYQDFSLFGNLTVAENLALNTYVLEGRRRMDWRRARTMAVEVLARLGVDIDPDAEVGTLPTSGRQVVAIARAILAKARLIIMDEPTTALTRHEVDALFAIVRDLQAQGIAVLFVSHKMREMLEISERLTVFRNGRKVAEGPMSDFDEAAITHAMTGLSLTDDPYRPTLPPGPPLLEVRKLSVPGSVQDIDLSLRPGEIVGISGLIGSGRTELARALFGMEPAMTGTLRLEGREIHPRSVQEAIALGIAYVPEDRLTEGLFLPQSIERNLVVSILERLRRGPFLDTRAVREKTLGMFRDMQIAAPSPETAVGNLSGGNAQRVMLGRWLLTGARVLILNGPTVGVDVGSKATIHRIIRDLAQREGLGVLMISDDVPELVTNCNRIHVMHRGRFVADLDGSGMTEDRINDALKTLN”, the “soluble on expression in E. coli” value is reported as “not soluble”.

On to “MDTQTLNSDLRVFMHHIYEFEKGVRSMVLATLANDDIPYAEERLRSRQIPYFAQPTPNTERTNLFFGCKECMEAIRLFVSGRSLNSLTPEEDFIIGAMLGYDICRQCERYCRRKSNS”, for which the “soluble on expression in E. coli” value is recorded as “soluble”.

Take “MYIIAHRGASGYAPENTIAAFDLAVKMNADMIELDVQLTKDRQIVVIHDDRVDRTTNGSGFVKDFTLEELQKLDAGSWYGPAFQGERIPTLEAVLKRYHKKIGLLIELKGHPSQVGIEEEVGQLLGQFSFSINNIVQSFQFRSVQRFRELYPSIPTAVITRPNFGMLSRNQMKAFRSFANYVNIKHTRLNRLMIGSINKNGLNIFAWTVNNQKTAAKLQAMGVDGIVTDYPDFIIKDGKHENILEHHHHHH”: the “soluble on expression in E. coli” value is given as “not soluble”.

“MGSDKIHHHHHHMSTINNRNPKISVLMSIYKENSLYVRQAIDSILNQSFGDFEFLIYNDNPEDFILDKLVLEIARKDSRIQYQRNEKNIGLAATLNRQICVAKGEYLARMDADDISLPDRFIMQVEYLDRNTNIAVLGTWAKIIDKEGQVISSASLKTGYNNIIACAMCDSPLFHPSVMIRKEFLQLNGLSYNEDFSCAQDYELWSRILFEKGGYIDNLSVYLIYYRVTTSQISSIKQQQQIYNSLLVRRNNISFFLNKYSIDLPRKITKTDVCNLINRISEFKEESSTHKIYVNILFMYCMSLPRLEKIILLIKYVCVFYSEFSLKQMCLLVASSFFMRKFPLCSLNIMLH”: the “soluble on expression in E. coli” value was “not soluble”.

Regarding “MSSNPSSVEKKLLHYTGKAIADFNMIQRGDRVMVCLSGGKDSFTLLTILNQLRIKSGNKFEIFAFTLDQAQPGWNDACLRQWLAEKSIPHEILTRDTYSIVKEKIPEGKTYCSLCSRLRRGIIYRYAEENGFNKIALGHHRDDLVRTLMMSILYNGDIRSMPPKLLSDNKKHIVIRPLCYVQEKDIITFASEQAFPIIPCNLCGSQENLMRKKVASLIDQLAIENPKVPSNMLHALQSLKPSQLMDQNFWNFKNLEDGLETTQSIQCEEVFNAQEFELEDEKI”, the “soluble on expression in E. coli” value is listed as “not soluble”.

As to “MKSATSAQRPYQEVGAMIRDLIIKTPYNPGERLPPEREIAEMLDVTRTVVREALIMLEIKGLVEVRRGAGIYVLDNSGSQNTDSPDANVCNDAGPFELLQARQLLESNIAEFAALQATREDIVKMRQALQLEERELASSAPGSSESGDMQFHLAIAEATHNSMLVELFRQSWQWRENNPMWIQLHSHLDDSLYRKEWLGDHKQILAALIKKDARAAKLAMWQHLENVKQRLLEFSNVDDIYFDGYLFDSWPLDKVDA”, the “soluble on expression in E. coli” value is recorded as “soluble”.

With “DQVGIWGNSPTAHRGLAVAARHAAPLLRVEDAFLRSLFPGRAGEPPLGLLLDRAGVHFDPTTPSDLEQLLTSAPLDDTTLLNRARDAMARIRENHLSKYCATDPDLPLPEPGYVLVIDQTRGDASVTASGGNDALFREMLVFAQEEHPGARVLIKTHPETAAGFRPGYYGERDISVRVSLYDAPLSPWALLDGAVGVYTLSSQLGFEAILAGHKPRVFGQPFYAGWGLTLDEHPVPRRERRLTRAQLFAAAMILYPTW”, the “soluble on expression in E. coli” value was “not soluble”.

On to “MSLKGTPGNVPAARTGIEITPAHRAFFHALPKIELHCHLLGAVRHDTFVALAERSGAPIERAEIDAFYARGEKPVGVLHVLRALDRYLLTQPDDLRRIAYEYLEDAAAYNVRHAEFFWNPTGTVHVSGIAYADAQAAIVTGIRDAARDFGIGARLIPSIDREQDPDEAVAIVEWMKANRADEVAGLGIDYRENDRPPELFWKAYRNARAAGFRTTAHAGEFGMPWRNVETAVDLLQVDRVDHGYTIVDNPELCARYAERGIVFTVVPTNSYYLRTLPPEQWAERHPMRKMPGLGLKIHPNTDDPTLHKVNPSEAWELMFSHFGFTVAELKQFMLNGIDGAWVDDTTKAAWRAAWAPEFDVLAATLAAGEGHHHHHH”, for which the “soluble on expression in E. coli” value is recorded as “soluble”.

Regarding “KGKSFIWIKRQLDPKVAEEVKALGLENFVFEKELKRHYPMGNLFAHVIGFTDIDGKGQEGLELSLEDSLHGEDGAEVVLRDRQGNIVDSLDSPRNKAPKNGKDIILSLD”, the “soluble on expression in E. coli” value is reported as “not soluble”.

Take “MNKNIDTVREIITVASILIKFSREDIVENRANFIAFLNEIGVTHEGRKLNQNSFRKIVSELTQEDKKTLIDEFNEGFEGVYRYLEMYTNK”: the “soluble on expression in E. coli” value is on record as “soluble”.

“MSPKSVVVTGSNRGLGFGLVQQFLKDPNVQHVIATARDVDKATALKGICDPRLHILQLSLGSDESIANFAEKVSEIVGESGLTLLINNAAVMLPYVTKQKPDRKVVLDLFESNTIGPMMLTQSLVPLIIKASKRQEGDTLSVSRGAIINIASEFLGSISENTSGSGEYKAMAYRMTKCAVNQFTKTLSIDLKDDHILTAGICPGMVQTDMSKGKGQLTIEESSSQILAAFNKLGATHNGGYFRRDLSIIPY”: the “soluble on expression in E. coli” value was “not soluble”.

“MGSDKIHHHHHHMQIELANFEKIYTHFVGNKSDEEGITISKTPLQLNDESLKELLLNYFTHPFKNKEYNHFHHETDLNLNELYTYCSTIFADPDALYLQSINIAKHLYEQSKHPMIKGGELYVVHFNDCVIDGESTDAIGLFKSETKETFLKIFPQGDGYEAVSDKGIDIRKLDKGCFIINSEKENGYKVCVVDQTNKSSDAQYWKDDFLKIVSRNDSFHYTQNYMNMCKSFVTDQMPETFEVSKTDQIDLLNRSVNYFKKNESFDMQAFTNDVIQDEGLIDSFKEYKNKFQEDHQMPMVDEFEISTPAVKKYAKVFKSVLKLDRNFHIYIHGDKDLIERGRDDASGMNFYKIYYKEES”: the “soluble on expression in E. coli” value was “not soluble”.

As for “VTTRDLTAAQFNETIQSSDMVLVDYWASWCGPCRAFAPTFAESSEKHPDVVHAKVDTEAERELAAAAQIRSIPTIMAFKNGKLLFNQAGALPPAALESLVQQLKAYEVEAGEATTQNGRAQQA”, the “soluble on expression in E. coli” value was “soluble”.

In the case of “MMKRALTGIQASGKQHLGNYLGVMQSLIELQEQCQLFVFVADLHSITVDFQPQALKQNNFDLVRTLLAVGLDPQKACLFLQSDLLEHSMMGYLMMVQSNLGELQRMTQFKAKKAEQTRNPNGTLNIPTGLLTYPALMAGDILLYQPDIVPVGNDQKQHLELTRDLAQRIQKKFKLKLRLPQFVQNKDTNRIMDLFDPTKKMSKSSKNQNGVIYLDDPKEVVVKKIRQATTDSFNKIRFAPKTQPGVTNMLTILKALLKEPVNQSLTNQLGNDLEAYFSTKSYLDLKNALTEATVNLLVNIQRKREQISREQVFNCLQAGKNQAQATARTTLALFYDGFGLGSQNIK”, the “soluble on expression in E. coli” value is on record as “soluble”.
